Drawing on article PMC12758282, this text covers binding for one sequence.

The series has as its target T1, RstA (Escherichia coli O157:H7 (EHEC; strain not given in the material)) (UniProt P52108).
T1 sequence: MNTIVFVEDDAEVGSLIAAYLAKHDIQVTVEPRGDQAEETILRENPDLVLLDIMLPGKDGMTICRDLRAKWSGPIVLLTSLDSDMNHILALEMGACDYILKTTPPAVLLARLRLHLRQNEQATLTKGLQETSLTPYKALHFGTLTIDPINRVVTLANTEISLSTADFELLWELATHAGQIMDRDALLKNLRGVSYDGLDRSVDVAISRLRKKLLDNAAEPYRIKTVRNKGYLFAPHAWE
Briefly: EMSA. In general terms: Mobility shift assays separate free from complexed probe on a gel.

Take “GTTATCGCAGGGAGCCACACAGCGTGTGTTGGACGCGACTCAGCTTTACCTTGGTGAGATTGGTTATTCACCACTGTTAACGGCCGAAGAAGAAGTTTATTTTGCGCGTCGCGCACTGCGTGGAGATGTCGCCTCTCGCCGCCGGATGATCGAGAGTAACTTGCGTCTGGTGGTAAAA (double strand) [rpoS fragment]”: the binding result is recorded as “no binding”.
